Measurements from the DeepSol protein solubility set.

assay: soluble on expression in E. coli; label from the status in PepcDB or PDB records

Soluble on expression in E. coli, not soluble:
MGSDKIHHHHHHMDKLDFRSQDFSQTGKAMYELACELFPIPRSITGQGFRDSLEILNKTLGGGILKFHSIKSGTKVFDWIVPDEWNVKEAYIITPKGEKICDFKKHNLHLLNYSEAIDQEIELEELQDHLYSIEEMPDAIPYVTSYYKRRWGFCLTHNERKKLKKGKYKVYIDAKHDENGVLDYADFILPSTQNSKDEILISTYLCHPSMANNELSGPVVSIFLAKWLLGLKERRYNYRFVIIPETIGSIVYLSKHLECLKKHVKAGFVLSCLGDDHTYSLIHTVKENTLSDKVALHTLKNKENFKAFSFLDRGSDERQYNAPLVNLGIVGVCRTRYGDYDGYHNSKDDLNFISEKGLMGGLQSMQEMILNLEINAVYENTIVCEPNLGKRGLYHTLSTTNDIPLACNFLAYCDGENDIIDIANILNMQAYEFKELLEKIKFYGLVK, MGSDKIHHHHHHMDKLRAIQLFVRLADLGSFTRVAEQVNSSKSMISKEISRLEADLGTRLLHRSTRSVQLTHVGEGYLQRAREILSKLDDADNFVQDLQQNLRGKLKINAPMALGITDLSHLFADFMKANPEIELDIHLGDESVDLVEQGFDLGFRASSQPIDSNYVGRPLTRFTYKVCVSPDYLKMHSTITHPRDLKEHNCFIYSYFQGKNVWPIEGGIEVKGSLRVNNTMFMMESIKQGLGIGFIPDFVCQQAINSGQVVEVLADSKKSMLTLYALYPVRNFVPPKLVQCIEYLEQWFADKDKP, MGSDKIHHHHHHMDLNALTLLVDILDAGNLSKAAQRLKMSRANVSYRLNQLEKSIGLQLVRRTTRRIEPTEIGLRLYEHGRRIQSELFAAREAVTTLGQDLQGRVRLSVPSGYGQLVMSNWLIAFKRLYPGIVLDVVFENRIEDLMRDEVDIAVRVMSEPPQNLVARDMGAVRYVACASPGFAATHGMPTELGQLFDAPVITSTVVGRQLRVAAYLGDERHEVLLEPTLISENFLFLRQAILAGLGVGIVPDYVVHDDVRRGAVVTTLDAYRLSIFGTHMYMLYMPNRHHTRATSTFIDFMLEEARNAGRGG, MGSDKIHHHHHHMDLPDSASRVFCGRILSMVNTDDVNAIILAQKNMLDRFEKTNEMLLNFNNLSSARLQQMSERFLHHTRTLVEMKRDLDSIFRRIRTLKGKLARQHPEAFSHIPEASFLEEEDEDPIPPSTTTTIATSEQSTGSCDTSPDTVSPSLSPGFEDLSHVQAGSPAINGRSQTDDEEMTGE, MGSDKIHHHHHHMDLRQIKTFVVVAEELHFGRAAARLQIAQPAVTAQIQALERQLGVPLLIRSTRRVQLTEAGMIFNSRCIDILRDIDRTCLATQAVAGKDLHQITIGTIYPATFGVLPNFVSRINQRFPEARIHIHNGNTVGIVREIERGNINLGFIRPVENIGSLRWQSIHREKYLLAIARENPLSSKSTVTPDDLRKQKIIAFSRAYNSQTDDNFPEEFKKYDLNQQVVYSCNDTQAMLAMITAGIGVGFVPEWVKSIPGQNFELREVEGLERHIGLGLAWSVDDPTVNRDSIIELCRTLIGSEVDWPR, MGSDKIHHHHHHMDLSSNRLAGKSILITRPLHQAGGLATWVRELGGEPWLFPVLEISDSENKQPLLDLIARLDEFDLAVFVSPNAVEKVIPLVQVSHSWPRHVLVATVGKGSARVLERYGITNVIVPEEGSDSEALLRMPQFQVMQGRHVVIFRGNDGRRLLGDTLRERGASVEYIECYRRHKPEADPLPLLKHWRDDGIQAVIISSSEGLDNLFDMIGETGQQLLKATPVFTAHERIERKARELGIRKIYRTLLGDEGTVQGLLEYFEKM, MGSDKIHHHHHHMDNIKQLSRLIIFAEVVQQGSFTGAAKQLGITKSAVSQQIKSLEADMDIRVLNRTTRGVSTTALGQKLLSRCQVLKDQVDLIFKDIVNAEENPRGRFAITLPHSLESNVVMPAIEQLCIEYPGIEPEIIVSDSSLDLVENNLDVAIHAGDLPDSSYRALPIGTITEIFCATPLYLNKNFTPQKLSDLAQLKWISTSWQKQKMSVYNSTNKEKVTIELTQFSKVNTFSTALAMALRHLGLVLLPDNVAKPLIKSGELVHIMEQFTGPVWPVHTLHAYQREKPVHLTRFHQLLCNHFHNL
